Laboratory results published in US20210347873A1 (SHANGHAI PHARMAEXPLORER, published 2021).

T1: cynomolgus BLyS (full length, arginine 132 mutated to histidine) on CHO-K1 cells (cynomolgus, UniProt Q9Y275 1-285 (human entry))
T1 construct: also called cyno BLyS; CHO-K1 cynoBLyS
T1 chain: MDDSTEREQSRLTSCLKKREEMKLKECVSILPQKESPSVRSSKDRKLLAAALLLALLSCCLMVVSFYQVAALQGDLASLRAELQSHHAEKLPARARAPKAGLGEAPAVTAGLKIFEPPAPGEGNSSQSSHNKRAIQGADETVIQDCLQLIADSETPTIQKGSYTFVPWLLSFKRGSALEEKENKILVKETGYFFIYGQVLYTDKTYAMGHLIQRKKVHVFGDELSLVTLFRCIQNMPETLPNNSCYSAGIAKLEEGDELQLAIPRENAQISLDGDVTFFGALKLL


Assays:
[1] = target: T1, cynomolgus BLyS (full length, arginine …); test: flow cytometry (FACS) on CHO-K1 cynoBLyS cells, Alexa 488 secondary antibody
biotinylated hBLyS-ECD [2] = target: T2, biotinylated hBLyS-ECD (human, UniProt Q9Y275 134-285, biotinylated with Biotin-X-X-NHS (molar ratio 7:1), sites not stated); test: ELISA, biotinylated hBLyS-ECD captured on streptavidin; antibody 0.0213 nM
T2 construct: The hBLyS-ECD of Embodiment 1 after biotinylation (Embodiment 2); also called biotinylated immunogen; BLyS protein; not shown: His tag of the pCPC vector
Experimental: Streptavidin was first diluted to a final concentration of 1.0 μg/mL with PBS, and then 50 μL of diluted streptavidin per well was aliquoted into 96-well ELISA plate, which was subsequently sealed with plastic film and incubated at 4° C. overnight. On the next day the plate was washed four times with the plate washing buffer [PBS buffer containing 0.05% (v/v) Tween20] and added with the blocking solution [PBS buffer containing 0.05% (v/v) Tween20 and 1% (w/w) BSA] and blocked for 2 hours at 37° C. The blocking solution was removed, the biotinylated hBLyS-ECD prepared in Embodiment 2 was diluted with PBS to a final concentration of 50 ng/mL and then aliquoted into the 96-well ELISA plate at 50 μL per well and incubated for 1 hour at 37° C. After rinsing the plate four times with the plate washing buffer [PBS buffer containing 0.05% (v/v) Tween20], 100 μl of the purified lead antibody harvested in Embodiment 1 and 2 was pipetted into each well. After incubation for 1 hour at 37° C., the plate was rinsed four times with the plate washing buffer [PBS buffer containing 0.05% (v/v) Tween20]. HRP-labeled (horseradish peroxidase) secondary antibody (purchased from Sigma) was added in and incubated at 37° C. for 1 hour. The plate was then rinsed four times with the plate washing buffer [PBS buffer containing 0.05% (v/v) Tween20]. 100 μL of TMB substrate was aliquoted into each well and after incubation for 5 minutes at room temperature, 100 μL of stop solution (1.0 N HCl) was aliquoted into each well. A₄₅₀ₙₘ values were read via an ELISA plate reader (SpectraMax M5e purchased from Molecular Devices) and the results were shown in FIGS. 5A-5B and Table 10.

[3] = target: T3, human BLyS (full length, arginine 132 mutated to histidine) on CHO-K1 cells (human, UniProt Q9Y275 1-285); test: flow cytometry (FACS) on CHO-K1 hBLyS cells, Alexa 488 secondary antibody
T3 construct: also called hBLyS; CHO-K1 hBLyS
T3 sequence (Q9Y275 other isoform, or with tags, fused parts or gaps limits assumed, change not shown): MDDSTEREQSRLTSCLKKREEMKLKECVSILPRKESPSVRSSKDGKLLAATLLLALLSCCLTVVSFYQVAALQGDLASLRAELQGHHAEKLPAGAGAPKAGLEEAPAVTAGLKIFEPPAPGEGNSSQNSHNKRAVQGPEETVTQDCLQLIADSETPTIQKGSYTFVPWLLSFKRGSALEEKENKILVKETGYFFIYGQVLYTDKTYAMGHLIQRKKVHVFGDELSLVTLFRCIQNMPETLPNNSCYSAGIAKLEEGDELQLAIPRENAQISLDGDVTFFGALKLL

biotinylated hBLyS-ECD [4] = target: T2, biotinylated hBLyS-ECD; test: receptor-ligand blocking ELISA: BAFF R coated, biotinylated hBLyS-ECD added with titrated antibody, HRP-avidin; blocked partner: BAFF R
Experimental: (§1) BAFF R (purchased from R & D Systems) was aliquoted into 96-well ELISA plate at 50 ng per well, and the plate was sealed with plastic film and incubated overnight at 4° C. On the next day the plate was washed four times with the plate washing buffer [PBS buffer containing 0.05% (v/v) Tween20] and added with blocking solution [PBS buffer containing 0.05% (v/v) Tween20 and 1% (w/w) BSA], then blocked for 1 hour at room temperature. The blocking solution was removed and 50 μL per well of the lead antibodies prepared in Embodiment 1 and 2 were added followed by the addition of 50 μL per well of the biotinylated hBLyS-ECD prepared in Embodiment 2. After incubation for 1 hour at 37° C., the plate was washed four times with the plate washing buffer [PBS buffer containing 0.05% (v/v) Tween20]. 100 μL per well of HRP-labeled (horseradish peroxidase) avidin (purchased from Sigma) was added and incubated at 37° C. for 1 hour. The plate was then washed four times with the plate washing buffer [PBS buffer containing 0.05% (v/v) Tween20]. 100 μL of TMB substrate was aliquoted into each well and after incubation for 5 minutes at room temperature, then 100 μL of stop solution (1.0 N HCl) was aliquoted into each well. A₄₅₀ₙₘ values were read with an ELISA plate reader (SpectraMax 384plus, Molecular Device) and the results were shown in FIGS. 9A-9B and Table 15. It was shown in Table 15 that the binding of BLyS protein to its receptor BAFF R could be blocked by the BLyS antibody.

biotinylated hBLyS-ECD [5] = target: T4, biotinylated hBLyS-ECD (human, UniProt Q9Y275 134-285, biotinylated with Biotin-X-X-NHS (molar ratio 7:1); sites not stated); test: blocking ELISA: biotinylated hBLyS-ECD on coated BAFF R, antibody 0.032 nM
T4 construct: also called biotinylated immunogen; BLyS protein
Experimental: as §1

biotinylated hBLyS-ECD [6] = target: T4, biotinylated hBLyS-ECD; test: blocking ELISA: biotinylated hBLyS-ECD on coated BAFF R, antibody 0.0064 nM
Experimental: BLyS antibody blocking the binding of the BLyS protein to its receptor BAFF R was detected by the receptor-ligand binding assay of BLyS protein.
as §1

Binder	EC50 (read off the curve) [1] [nM]	OD450 nm (biotinylated hBLyS-ECD [2])	EC50 (read off the curve) [3] [nM]	IC50 (read off the curve) (biotinylated hBLyS-ECD [4]) [nM]	OD450 nm (biotinylated hBLyS-ECD [5]) [OD450 nm]	OD450 nm (biotinylated hBLyS-ECD [6]) [OD450 nm]
L9G7 (antibody, human IgG1, V domains shown) VH: QIQLVQSGAEVKKPGASVKVSCKASGYTFTSYGISWVRQAPGQGLEWMGWISAYNGNTNYAQKLQGRVTMTTDTSTSTAYMELRSLRSDDTAVYYCARTYYDILTGYYYYGMDVWGQGTTVTVSS VL: EIVLTQSPGTLSLSPGERATLSCRTSQSVDTYLAWYQQKPGQAPRLLIYDASNRATGIPARFSGSGSGTDFTLTISSLEPEDFAVYYCQQRSNWPLTFGGGTKVEIK	~0.2	0.181	~0.3	~0.7		
8E7D9C7F5 (antibody, V domains shown, Mouse hybridoma monoclonal antibody purified on Protein G) VH: QVQLQQSGVELARPGASVKLSCKASGYTFTSYGISWVKQRTGQALEWIGEIYPRSGNTYYNEKFKGKATLTADKSSSTAYMELRSLTSEDSAVYFCARSGPITTLVATDYGMDYWGQGTSVTVSS VL: DIVLTQSPASLAVSLGQRATISCRASKSVSTSSYSYMHWYQQKPGQPPKLLIKFASNLESGVPARFSGSGSGTDFTLNIHPVEEEDAATYYCQHSREFPYTFGGGTKLEIK					1.05	1.38
L1D12 (antibody, human IgG1, V domains shown, also called LID12) VH: QVQLVQSGGGLVQPGGSLRLSCAASGFTVSSNYMSWVRQAPGKGLEWVSVIYSGGSTYYADSVKGRFTISRDNSKNTLYLQMNSLRAEDTAVYYCARGFHDILTGYGMDVWGQGTTVTVSS VL: SSELTQDPAVSVALGQTVRITCQGDSLRNYYAGWYQQKPGQAPVLVIYGKNNRPSGIPDRFSGSSSGNTASLTITGTQAEDEADYYCSSRDNSGTHLVEFGGGTKLTVL	~0.2	0.262	~0.2	~1		
97A3C2H4 (antibody, V domains shown, Mouse hybridoma monoclonal antibody purified on Protein G) VH: EVKLVESGGGLVQPGGSLKLSCAASGFTFSTYTMSWVRQTPEKRLEWVAYISYGGGSTSYPDTVKGRFTISRDNAKNTLYLQMSSLKSEDTAIYYCTRHVTVVENSMDYWGQGTSVTVSS VL: DILLTQSPDILSVSPGERVSFSCRASQSIGTSIHWYQQRTNGSPRLLIKYVSESFSGTPSRFSGSGSGTAFTLTINSVESEDIADYYCQQTHSWPWTFGGGTKLEIK					1.12	1.21

The remaining lines, values ahead:

EC50 (read off the curve) [1] [nM]	OD450 nm (biotinylated hBLyS-ECD [2])	EC50 (read off the curve) [3] [nM]	IC50 (read off the curve) (biotinylated hBLyS-ECD [4]) [nM]	OD450 nm (biotinylated hBLyS-ECD [5]) [OD450 nm]	OD450 nm (biotinylated hBLyS-ECD [6]) [OD450 nm]	Binder
				1.14	1.29	111D10D6G3 (antibody, V domains shown, Mouse hybridoma monoclonal antibody purified on Protein G) VH: QVQLQQPGAELVKPGASVKMSCKASGYTFTRHWITWVKQRPGQGLEWIGDIFPGSGSINYNEKFKSEATLTVEKSSSTAYMQLSSLTSEDSAVYYCARGDVDVWGTGTTVTVSS VL: DIQMTQSPSSLSASLGERVSLTCRASQEIRGYLSWLQQKPNGTIKRLIYAASTLDSGVPKRFSATRSGSDFSLTISSLESEDFADYYCLQYASYPFTFGSGTKLEIK
~0.1	0.194	~0.1	~0.1			111D10D6G3 (antibody, V domains shown, Mouse hybridoma antibody purified on Protein G) VH: QVQLQQPGAELVKPGASVKMSCKASGYTFTRHWITWVKQRPGQGLEWIGDIFPGSGSINYNEKFKSEATLTVEKSSSTAYMQLSSLTSEDSAVYYCARGDVDVWGTGTTVTVSS VL: DIQMTQSPSSLSASLGERVSLTCRASQEIRGYLSWLQQKPNGTIKRLIYAASTLDSGVPKRFSATRSGSDFSLTISSLESEDFADYYCLQYASYPFTFGSGTKLEIK
~0.3	0.283	~0.3	~0.3			97A3C2H4 (antibody, V domains shown, Mouse hybridoma antibody purified on Protein G) VH: EVKLVESGGGLVQPGGSLKLSCAASGFTFSTYTMSWVRQTPEKRLEWVAYISYGGGSTSYPDTVKGRFTISRDNAKNTLYLQMSSLKSEDTAIYYCTRHVTVVENSMDYWGQGTSVTVSS VL: DILLTQSPDILSVSPGERVSFSCRASQSIGTSIHWYQQRTNGSPRLLIKYVSESFSGTPSRFSGSGSGTAFTLTINSVESEDIADYYCQQTHSWPWTFGGGTKLEIK
